Reference: the supplement of paper PMC10126150
± gives the standard deviation of the averaged measurements.

Tested on: ATP
Test: switch fluorescence ratio, 500 uM ATP over buffer (Cy3 cluster intensity, sum of 5 cycles each) (fold (ratio)); higher = stronger signal-on switching upon ATP binding; sequences stand for … in TCGTCGGCAGCGTCAGATGTGTATAAGAGACAGTTTTTTTTTTTTTTTTTTTTTTTTT…TC
Conditions: aptamer strand: ATP DNA aptamer (quencher-CACCTGGGGGAGTATTGCGGAGGAAGG + anchor), 100 nM annealed; ATP concentration: 500 uM
Summary of the method: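 After annealing to 100 nM quencher-labelled ATP aptamer, Cy3-labelled switching-strand clusters on a modified Illumina MiSeq flow-cell were imaged in selection buffer. A second image followed after 15 min with 500 uM ATP at 22 °C, and five such buffer/ATP cycles were done, each separated by NaOH stripping and re-annealing. The fluorescence ratio, averaged per switch-domain sequence, is summed target-cycle over summed buffer-cycle Cy3 intensity per cluster, with clusters outside 100-1000 RFU excluded.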
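Further: ATP exposure 15 min at 22 °C before imaging.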

Sequence | switch fluorescence ratio
TTTGCGAGGT | 0.972 ± 0.026
TTTGCGCGCG | 0.992 ± 0.021
TTTGCGGAAT | 1.05 ± 0.027
TTTGCGGGTT | 1 ± 0.057
TTTGCTAGTT | 0.988 ± 0.009
TTTGCTATAT | 1.18 ± 0.33
TTTGCTGGAA | 0.995 ± 0.015
TTTGCTTAGG | 0.993 ± 0.037
TTTGCTTCGT | 1.04 ± 0.048
TTTGCTTTGG | 0.997 ± 0.019
TTTGGACGTC | 0.992 ± 0.037
TTTGGAGGGA | 1.48 ± 0.8
TTTGGAGTGT | 1.08 ± 0.12
TTTGGATCAG | 1.01 ± 0.02
TTTGGATGAA | 1.05 ± 0.013
TTTGGATGCT | 1.05 ± 0.14
TTTGGCAAGG | 1.01 ± 0.054
TTTGGCATGC | 1.11 ± 0.14
TTTGGCATGG | 1.024 ± 0.0073
TTTGGCCAAA | 1.05 ± 0.046
TTTGGCCAAG | 0.996 ± 0.029
TTTGGCCCCT | 1 ± 0.03
TTTGGCGAAC | 1.02 ± 0.02
TTTGGCGGCG | 0.993 ± 0.067
TTTGGCGGGG | 0.999 ± 0.04

Sequence | switch fluorescence ratio
TTTGGCGTTG | 0.9881 ± 0.0086
TTTGGCTATT | 0.976 ± 0.028
TTTGGCTTAT | 0.989 ± 0.022
TTTGGGAAGG | 0.985 ± 0.034
TTTGGGACTT | 1.01 ± 0.035
TTTGGGAGGA | 1.02 ± 0.047
TTTGGGATTT | 1.04 ± 0.15
TTTGGGGAAT | 1.02 ± 0.033
TTTGGGGGCA | 0.989 ± 0.041
TTTGGGGGTG | 1.02 ± 0.038
TTTGGGGTAC | 1.72 ± 1.3
TTTGGGGTAT | 0.995 ± 0.028
TTTGGGTAGG | 1.03 ± 0.062
TTTGGGTAGT | 1.04 ± 0.034
TTTGGGTGCA | 0.987 ± 0.038
TTTGGGTGTC | 0.979 ± 0.014
TTTGGGTTCT | 1.03 ± 0.031
TTTGGGTTTG | 1.01 ± 0.029
TTTGGTATAG | 0.975 ± 0.01
TTTGGTCAAG | 1.01 ± 0.016
TTTGGTGGAT | 0.9794 ± 0.0058
TTTGGTTGAG | 1 ± 0.047
TTTGGTTGG | 1.0076 ± 0.00057
TTTGGTTGTA | 0.965 ± 0.014
TTTGGTTTCA | 0.994 ± 0.013

Sequence | switch fluorescence ratio
TTTGGTTTGA | 1 ± 0.046
TTTGTAACAT | 0.966 ± 0.047
TTTGTACGGG | 0.999 ± 0.036
TTTGTAGCAG | 1.09 ± 0.028
TTTGTAGCCG | 1.01 ± 0.061
TTTGTAGCTG | 1.4 ± 0.046
TTTGTAGTAT | 1.03 ± 0.1
TTTGTATTAC | 1.32 ± 0.38
TTTGTATTTT | 0.992 ± 0.026
TTTGTCAGTA | 0.989 ± 0.018
TTTGTCCCG | 1.01 ± 0.044
TTTGTCGACC | 0.992 ± 0.0055
TTTGTCGGGT | 0.994 ± 0.014
TTTGTCTAG | 1.022 ± 0.00058
TTTGTCTGGT | 0.992 ± 0.017
TTTGTCTTTT | 1.02 ± 0.045
TTTGTGAGT | 0.979 ± 0.017
TTTGTGAGTA | 1 ± 0.023
TTTGTGGAGT | 1 ± 0.021
TTTGTGGGA | 0.997 ± 0.021
TTTGTGGGCC | 1.03 ± 0.093
TTTGTGGGCG | 0.932 ± 0.021
TTTGTGGGG | 0.978 ± 0.023
TTTGTGGGGT | 1.01 ± 0.047
TTTGTGGGTC | 0.995 ± 0.043

Sequence | switch fluorescence ratio
TTTGTGGTTG | 0.992 ± 0.032
TTTGTGTCCG | 0.946 ± 0.088
TTTGTGTGGT | 0.978 ± 0.017
TTTGTGTGTA | 0.9846 ± 0.0097
TTTGTGTTCT | 0.9786 ± 0.0048
TTTGTGTTTA | 0.9791 ± 0.0042
TTTGTGTTTT | 1.03 ± 0.044
TTTGTTAAAA | 1.04 ± 0.061
TTTGTTACCG | 0.995 ± 0.012
TTTGTTAGAA | 1.02 ± 0.012
TTTGTTCCTT | 1.01 ± 0.04
TTTGTTCTGG | 1.49 ± 0.73
TTTGTTGCAG | 0.994 ± 0.036
TTTGTTGCCT | 1.014 ± 0.0088
TTTGTTGTGC | 1.01 ± 0.016
TTTGTTTATA | 0.9992 ± 0.0034
TTTGTTTGAT | 0.999 ± 0.034
TTTGTTTTGT | 1.01 ± 0.051
TTTGTTTTTC | 1.02 ± 0.013
TTTTAAAAAG | 1 ± 0.012
TTTTAAAACG | 1.04 ± 0.084
TTTTAAACAC | 1.07 ± 0.11
TTTTAAAGCT | 1.09 ± 0.039
TTTTAACCCC | 1.26 ± 0.19
TTTTAACGTG | 0.979 ± 0.021

Sequence | switch fluorescence ratio
TTTTAACTTT | 1.03 ± 0.052
TTTTAAGGAG | 1 ± 0.047
TTTTAAGTTT | 0.978 ± 0.027
TTTTAATCTC | 0.979 ± 0.024
TTTTAATGTG | 1 ± 0.016
TTTTACAAAA | 0.981 ± 0.02
TTTTACCACC | 1.22 ± 0.049
TTTTACGCAC | 1.81 ± 0.024
TTTTACGGAT | 1.01 ± 0.012
TTTTACGGGA | 1.26 ± 0.41
TTTTACGGGC | 1.018 ± 0.0039
TTTTACGGTG | 0.978 ± 0.03
TTTTACTCCG | 3.1 ± 1.9
TTTTACTGTT | 1.12 ± 0.096
TTTTACTT | 0.998 ± 0.042
TTTTAGAGT | 0.988 ± 0.024
TTTTAGATGA | 0.966 ± 0.027
TTTTAGCAAC | 1.2325 ± 0.0007
TTTTAGCATT | 0.992 ± 0.062
TTTTAGCGGT | 0.974 ± 0.02
TTTTAGCTCT | 0.963 ± 0.015
TTTTAGGCAC | 1.03 ± 0.018
TTTTAGGCCC | 1.09 ± 0.073
TTTTAGGCTG | 0.961 ± 0.027
TTTTAGGCTT | 1.01 ± 0.026

Sequence | switch fluorescence ratio
TTTTAGGGAA | 1.03 ± 0.035
TTTTAGGTCC | 0.977 ± 0.023
TTTTAGTACC | 1.018 ± 0.0081
TTTTAGTTTG | 1.01 ± 0.035
TTTTATAAAT | 1.02 ± 0.0071
TTTTATAATA | 1.05 ± 0.034
TTTTATACGT | 1.01 ± 0.016
TTTTATAGAA | 1.0092 ± 0.00051
TTTTATAGAT | 0.977 ± 0.015
TTTTATAGCA | 1.02 ± 0.059
TTTTATAGGG | 0.948 ± 0.027
TTTTATCAA | 1.07 ± 0.12
TTTTATCACT | 1.03 ± 0.034
TTTTATCCGT | 1.06 ± 0.066
TTTTATCGGG | 0.971 ± 0.016
TTTTATCTTG | 1.03 ± 0.017
TTTTATGACA | 1.02 ± 0.033
TTTTATGACC | 1.008 ± 0.0066
TTTTATGCAA | 1.28 ± 0.3
TTTTATGCCC | 0.9772 ± 0.0032
TTTTATGCTT | 0.97025 ± 0.00037
TTTTATGGAC | 1.03 ± 0.03
TTTTATGGAT | 1.01 ± 0.013
TTTTATGGCG | 1.04 ± 0.0024
TTTTATGGGT | 0.992 ± 0.018

Sequence | switch fluorescence ratio
TTTTATGTGT | 0.992 ± 0.035
TTTTATGTTC | 1.01 ± 0.018
TTTTATTAAA | 1 ± 0.031
TTTTATTATG | 1 ± 0.022
TTTTATTCAG | 1 ± 0.03
TTTTATTTGC | 1.01 ± 0.024
TTTTATTTTC | 0.993 ± 0.027
TTTTCAAACC | 0.9953 ± 0.0034
TTTTCAAATC | 1.016 ± 0.0075
TTTTCAACCA | 1.06 ± 0.043
TTTTCAAGAG | 1.019 ± 0.01
TTTTCAAGGA | 0.993 ± 0.07
TTTTCAAGTG | 1 ± 0.029
TTTTCAATCG | 1.01 ± 0.045
TTTTCAATTT | 0.9758 ± 0.0064
TTTTCACAAT | 1.17 ± 0.21
TTTTCACGTT | 1.07 ± 0.095
TTTTCACTTC | 1.03 ± 0.069
TTTTCAGTGG | 1.02 ± 0.021
TTTTCAGTGT | 0.996 ± 0.029
TTTTCATATC | 1.04 ± 0.025
TTTTCATCAT | 1.01 ± 0.031
TTTTCATTCT | 1.01 ± 0.013
TTTTCCAGGG | 1.22 ± 0.18
TTTTCCATTA | 1 ± 0.044

Sequence | switch fluorescence ratio
TTTTCCCTGC | 1.24 ± 0.11
TTTTCCGTTT | 1.02 ± 0.032
TTTTCCT | 1.04 ± 0.02
TTTTCGAAGC | 2.08 ± 1.5
TTTTCGAAGG | 1.005 ± 0.0028
TTTTCGAGAG | 1 ± 0.026
TTTTCGATAG | 1 ± 0.013
TTTTCGGATT | 0.9845 ± 0.0054
TTTTCGGCGT | 1.01 ± 0.01
TTTTCGGCTG | 0.943 ± 0.11
TTTTCGGTCA | 0.976 ± 0.026
TTTTCGGTCT | 0.994 ± 0.017
TTTTCGGTGA | 0.9713 ± 0.0057
TTTTCGGTGC | 1.06 ± 0.1
TTTTCGTATG | 1 ± 0.053
TTTTCGTTTC | 1.01 ± 0.033
TTTTCTACGG | 0.989 ± 0.02
TTTTCTACTT | 0.999 ± 0.027
TTTTCTATAT | 1.01 ± 0.065
TTTTCTGTGT | 0.9398 ± 0.0077
TTTTCTTAGG | 1.08 ± 0.14
TTTTCTTCTT | 1.02 ± 0.068
TTTTCTTTAT | 1.03 ± 0.036
TTTTGAAAAA | 1 ± 0.061
TTTTGAAAGA | 1.01 ± 0.062
